Reference: paper PMC11178869

B1: TatC with C-terminal hexahistidine tag, wild type (TatABC system) [E. coli] / TatB [E. coli] (parent)
chain 1: MFDIGFSELLLVFIIGLVVLGPQRLPVAVKTVAGWIRALRSLATTVQNELTQELKLQEFQDSLKKVEKASLTNLTPELKASMDELRQAAESMKRSYVANDPEKASDEAHTIHNPVVKDNEAAHEGVTPAAAQTQASSPEQKPETTPEPVVKPAADAEPKTAAPSPSSSDKP
chain 2: MSVEDTQPLITHLIELRKRLLNCIIAVIVIFLCLVYFANDIYHLVSAPLIKQLPQGSTMIATDVASPFFTPIKLTFMVSLILSAPVILYQVWAFIAPALYKHERRLVVPLLVSSSLLFYIGMAFAYFVVFPLAFGFLANTAPEGVQVSTDIASYLSFVMALFMAFGVSFEVPVAIVLLCWMGITSPEDLRKKRPYVLVGAFVVGMLLTPPDVFSQTLLAIPMYCLFEIGVFFSRFYVGKGRNREEENDAEAESEKTEE
B2: TatC with C-terminal hexahistidine tag, wild type (TatABC system) [E. coli] / TatA [E. coli] (parent)
chain 1: MGGISIWQLLIIAVIVVLLFGTKKLGSIGSDLGASIKGFKKAMSDDEPKQDKTSQDADFTAKTIADKQADTNQEQAKTEDAKRHDKEQV
chain 2: B1 chain 2

Variants of: B1
Experiment: affinity purification (H6-tagged TatC) with SDS-PAGE/Western-blot band quantification
Details: eight replicates, read off a plot

Row | Variant | response [signal ratio]
1 | chain 2 MSVEDTQPLITHLIELRKRLLNCIIAVIVIFLCLVYFANDIYHLVSAPLYKQLPQGSTMIATDVASPFFTPIKLTFMVSLILSAPVILYQVWAFIAPALYKHERRLVVPLLVSSSLLFYIGMAFAYFVVFPLAFGFLANTAPEGVQVSTDIASYLSFVMALFMAFGVSFEVPVAIVLLCWMGITSPEDLRKKRPYVLVGAFVVGMLLTPPDVFSQTLLAIPMYCLFEIGVFFSRFYVGKGRNREEENDAEAESEKTEE [chain 2 I50Y] | 0.86
2 | chain 2 MSVEDTQPLITHLIELRKRLLNCIIAVIVIFLCLVYFANDIYHLVSAPLIKQLPQGSTMIATDVASPFFTPIKLTFMVSLILSAPVILYQVWAFIAPALYKHERRLVVPLLVSSSLLFYIGMAFAYFVVFPLAFGFLANTAPEGVQVSTDIASYLSFVMALFMAFGVSFEVPVAIVLLCWMGITSPEDARKKRPYVLVGAFVVGMLLTPPDVFSQTLLAIPMYCLFEIGVFFSRFYVGKGRNREEENDAEAESEKTEE [chain 2 L189A] | 0.97
3 | chain 2 MSVEDTQPLITHLIELRKRLLNCIIAVIVIFLCLVYFANDIYHLVSAPLIKQLPQGSTMIATDVASPFFTPIKLTFMVSLILSAPVILYQVWAFIAPALYKHERRLVVPLLVSSSLLFYIGMAFAYFVVFPLAFGFLANTAPEGVQVSTDIASALSFVMALFMAFGVSFEVPVAIVLLCWMGITSPEDLRKKRPYVLVGAFVVGMLLTPPDVFSQTLLAIPMYCLFEIGVFFSRFYVGKGRNREEENDAEAESEKTEE [chain 2 Y154A] | 0.81

Variants of: B2
Experiment: as above
Details: eight replicates, read off a plot

Row | Variant | response [signal ratio]
4 | chain 2 MSVEDTQPLITHLIELRKRLLNCIIAVIVIFLCLVYFANDIYHLVSAPLYKQLPQGSTMIATDVASPFFTPIKLTFMVSLILSAPVILYQVWAFIAPALYKHERRLVVPLLVSSSLLFYIGMAFAYFVVFPLAFGFLANTAPEGVQVSTDIASYLSFVMALFMAFGVSFEVPVAIVLLCWMGITSPEDLRKKRPYVLVGAFVVGMLLTPPDVFSQTLLAIPMYCLFEIGVFFSRFYVGKGRNREEENDAEAESEKTEE [chain 2 I50Y] | 1.3
5 | chain 2 MSVEDTQPLITHLIELRKRLLNCIIAVIVIFLCLVYFANDIYHLVSAPLIKQLPQGSTMIATDVASPFFTPIKLTFMVSLILSAPVILYQVWAFIAPALYKHERRLVVPLLVSSSLLFYIGMAFAYFVVFPLAFGFLANTAPEGVQVSTDIASYLSFVMALFMAFGVSFEVPVAIVLLCWMGITSPEDARKKRPYVLVGAFVVGMLLTPPDVFSQTLLAIPMYCLFEIGVFFSRFYVGKGRNREEENDAEAESEKTEE [chain 2 L189A] | 0.67
6 | chain 2 MSVEDTQPLITHLIELRKRLLNCIIAVIVIFLCLVYFANDIYHLVSAPLIKQLPQGSTMIATDVASPFFTPIKLTFMVSLILSAPVILYQVWAFIAPALYKHERRLVVPLLVSSSLLFYIGMAFAYFVVFPLAFGFLANTAPEGVQVSTDIASALSFVMALFMAFGVSFEVPVAIVLLCWMGITSPEDLRKKRPYVLVGAFVVGMLLTPPDVFSQTLLAIPMYCLFEIGVFFSRFYVGKGRNREEENDAEAESEKTEE [chain 2 Y154A] | 1.6
